Experimental data as given in PMC3364950, “Structure and Functional Analysis of the RNA- and Viral Phosphoprotein-Binding Domain of Respiratory Syncytial Virus M2-1 Protein”.

Columns and labels:
[1] = target: RSV phosphoprotein P, full-length (P_(1–241)) (human respiratory syncytial virus (strain Long)) (UniProt P12579); experiment: ITC; M2-1_(58–177) (335 µM, 20 injections of 2 µL) injected into P (33 µM) in the cell; 1× PBS; 20°C
[2] = target: RSV phosphoprotein P, full-length (P_(1–241)) (UniProt P12579); experiment: GST pull-down; settings: parent: est. 100; read off a plot
[3] = target: T1, M2-1(58-177) core domain (human respiratory syncytial virus (hRSV, strain Long per Fig S7)) (UniProt P04545); experiment: NMR titration; settings: NMR: 50-60 µM protein, 293 K, 14.1 T, 1:1 model, buffer/salt/pH not in material; EMSA: 100 µM GST fusion eluted with GSH, ~50 µM tRNA, 1 h room temperature …
T1 sequence: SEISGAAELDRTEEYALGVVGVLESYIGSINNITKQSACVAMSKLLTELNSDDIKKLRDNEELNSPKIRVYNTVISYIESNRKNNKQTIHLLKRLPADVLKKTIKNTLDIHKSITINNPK

[4] = target: GST-M2-1 L148A (full-length) (human respiratory syncytial virus (strain Long)); experiment: pull-down; ~25 µM GST-M2-1 (or GST) on Glutathione-Sepharose 4B beads in PBS with a 3-fold molar excess of purified P, 1 h at 20°C; washed with PBS; SDS-PAGE, Coomassie blue, bands quantified with ImageJ
[5] = target: GST-M2-1 N163D (full-length) (human respiratory syncytial virus (strain Long)); experiment: as above
[6] = target: GST-M2-1 R126D (full-length) (human respiratory syncytial virus (strain Long)); experiment: as above
[7] = target: GST-M2-1 T130D (full-length) (human respiratory syncytial virus (strain Long)); experiment: as above
[8] = target: GST-M2-1 T160D (full-length) (human respiratory syncytial virus (strain Long)); experiment: as above
M2-1(58-177) core domain = target: T2, M2-1(58-177) core domain (human respiratory syncytial virus …, UniProt P04545 58-177); experiment: NMR titration; NMR: 50-60 µM protein, 293 K, 14.1 T, 1:1 model, buffer/salt/pH not in material; EMSA: 100 µM GST fusion eluted with GSH, ~50 µM tRNA, 1 h room temperature, 1.5% agarose, 1x Tris-Glycine, 4°C; settings: protein: recombinant, tags: N-terminal Gly-Ser left after thrombin cleavage of GST
T2 sequence: T1 sequence

[9] = predicted hairpin, poly-U loop, 2-3 bp stem

## RSV M2-1_(58–177) core domain (domain or fragment)
[1]
  Kd: 3 µM
  stoichiometry N: 1

## GST-M2-1 (full-length M2-1 fused to GST), WT K150D
[2]
  percent of parent: 63 % WT

## GST-M2-1 (full-length M2-1 fused to GST), WT R151D
[2]
  percent of parent: 44 % WT

## AGUUAUAUAAAA / UUUUAUAUAACU [GE_F-ds]
[3]
  Kd: 4.5 µM

## GST-M2-1 (full-length M2-1 fused to GST), WT K92D
[2]
  percent of parent: 54 % WT

## RSV phosphoprotein P, full-length (P_(1–241)) (from UniProt P12579 1-241) (natural protein)
[4]
  decrease in P binding against WT: > 50%
[5]
  decrease in P binding against WT: > 50%
[6]
  decrease in P binding against WT: > 50%
[7]
  decrease in P binding against WT: > 50%
[8]
  decrease in P binding against WT: > 50%

B1: GE_SH-neg (ssRNA)
RNA: UUUUUAAUUAACU
M2-1(58-177) core domain
  Kd: 75 ± 15 µM

B2: GE_F-neg (ssRNA)
RNA: UUUUAUAUAACU
M2-1(58-177) core domain
  Kd: 85 ± 25 µM

B3: GE_F-DNA (ssDNA)
DNA: TTTTATATAACT
M2-1(58-177) core domain
  Kd: 250 ± 70 µM

B4: leader-neg (ssRNA)
RNA: CGCAUUUUUUCGCGU
M2-1(58-177) core domain; [9]
  Kd: 75 ± 15 µM

B5: GS-neg (ssRNA)
RNA: UAUUUGCCCC
M2-1(58-177) core domain
  Kd: 110 ± 15 µM

B6: leader-pos (ssRNA)
RNA: ACGCGAAAAAAU
M2-1(58-177) core domain; partial self-association (two G-C and U-A pairs) seen by NMR
  Kd: 2.5 ± 1.5 µM

B7: UGA2 (structured_RNA)
RNA: GCGCUUUUUUAAGCGC
M2-1(58-177) core domain; hairpin, 5 bp, U-stretch
  Kd: 60 ± 10 µM

B8: short A-rich (short polyA) (ssRNA)
RNA: CCAAAAAAAU
M2-1(58-177) core domain
  Kd: 22 ± 6 µM

B9: long U-rich (ssRNA)
RNA: CCCAUUUUUUUGGUU
M2-1(58-177) core domain; [9]
  Kd: 125 ± 35 µM
